Measured values taken from PMC7382286 (2020).

Columns and labels:
[1] = molecular target: T1, biotinylated recombinant human Arginase 2 (human, UniProt P78540 23-354, biotin (biotinylated; site not stated)); experiment: BLI
T1 chain: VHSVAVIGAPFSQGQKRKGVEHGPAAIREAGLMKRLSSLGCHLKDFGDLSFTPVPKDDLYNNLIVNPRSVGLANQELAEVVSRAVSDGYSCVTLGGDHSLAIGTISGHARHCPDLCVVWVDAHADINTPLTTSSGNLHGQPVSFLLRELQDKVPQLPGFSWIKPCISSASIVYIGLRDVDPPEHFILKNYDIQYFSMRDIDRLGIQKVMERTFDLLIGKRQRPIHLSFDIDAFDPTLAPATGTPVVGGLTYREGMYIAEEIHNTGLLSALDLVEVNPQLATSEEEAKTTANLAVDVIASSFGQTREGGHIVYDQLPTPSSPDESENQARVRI

[2] = molecular target: T1, biotinylated recombinant human Arginase …; experiment: BLI

B1: Fab C0021177 (Fab, V domains shown)
VH: EVQLLESGGGLVQPGGSLRLSCAASGFTFRYEVAAWVRQAPGKGLEWVSAISGPAPKGYYADSVKGRFTISRDNSKNTLYLQMNSLRAEDTAVYYCARLRADLGLYMDLWGRGTLVTVSS
VL: QSELTQPPTASAAPGQKVTISCSGSSSNIGNHYVSWYQQLPGTAPKLLIYDTTVLSSGIPDRFSGSKSGTSATLGITGLQTGDEADYYCGTWDELTSNLVFGGGTKLTVL
Q: For B1, which Kd [1] is on record?
A: 0.17 nM

Q: What about the koff [2] of the same binder?
A: 3.5e-05 s⁻¹

B2: Fab C0021139 (Fab, V domains shown)
VH: EVQLLESGGGLVQPGGSLRLSCAASGFTFQYDYQVWVRQAPGKGLEWVSAISGSGGSTYYADSVKGRFTISRDNSKNTLYLQMNSLRAEDTAVYYCARLRADLGLYMDLWGRGTLVTVSS
VL: QSVLTQPPSVSAAPGQKVTISCSGSSSNIGNHYVSWYQQLPGTAPKLLIYDNSERTSGIPDRFSGSKSGTSATLGITGLQTGDEADYYCGTWDELTSNLVFGGGTKLTVL
Q: How did the Kd [1] turn out when B2 was run?
A: 4.4 nM

Q: What about the koff [2] of the same binder?
A: 0.00087 s⁻¹

B3: Fab C0021128 (Fab, V domains shown)
VH: EVQLLESGGGLVQPGGSLRLSCAASGFTFQYEVAAWVRQAPGKGLEWVSAISGPIPKGYYADSVKGRFTISRDNSKNTLYLQMNSLRAEDTAVYYCARLRADLGLYMDLWGRGTLVTVSS
VL: QSVLTQPPSVSAAPGQKVTISCSGSSSNIGNHYVSWYQQLPGTAPKLLIYDNAIESSGIPDRFSGSKSGTSATLGITGLQTGDGADYYCGTWDSNLSALVFGGGTKLTVL
Q: Which results are given for B3?
A: Kd [1]: 2.5 nM; koff [2]: 0.00067 s⁻¹

B4: Fab C0021133 (Fab, V domains shown)
VH: EVQLLESGGGLVQPGGSLRLSCAASGFTFRYDHHVWVRQAPGKGLEWVSAISGSGGSTYYADSVKGRFTISRDNSKNTLYLQMNSLRAEDTAVYYCARLRADLGLYMDLWGRGTLVTVSS
VL: QSVLTQPPSVSAAPGQKVTVSCSGSSSNIGNHYVSWYQQLPGTAPKLLIYDTTVLSSGIPDRFSGSKSGTSATLGITGLQTGDEADYYCGTWDELTSNLVFGGGTKLTVL
Q: Which results are given for B4?
A: Kd [1]: 2.1 nM; koff [2]: 0.00045 s⁻¹

B5: Fab C0021158 (Fab, V domains shown)
VH: EVQLLESGGGLVQPGGSLRLSCAASGFTFRYEVAAWVRQAPGKGLEWVSAISGPIPKGYYADSVKGRFTISRDNSKNTLYLQMNSLRAEDTAVYYCARLRADLGLYMDLWGRGTLVTVSS
VL: QSVLTQPPSVSAAPGQKVTISCSGSSSNIGNHYVSWYQQLPGTAPKLLIYDNSERTAGVPDRFSGSKSGTSATLGITGLQTGDEADYYCGTWDELTSNLVFGGGTKLTVL
Q: For B5, which Kd [1] is on record?
A: 0.17 nM

Q: What about the koff [2] of the same binder?
A: 4.5e-05 s⁻¹

B6: Fab C0021181 (Fab, V domains shown)
VH: EVQLLESGGGLVRPGGSLRLSCAASEFTFRYDYHVWVRQAPGKGLEWVSAISGSGGSTYYADSVKSRFTISRDNSKNTLYLQMNSLRAEDTAVYYCARLRADLGLYMDLWGRGTLVTVSS
VL: QSVLTQPPSVSAAPGQKVAVSCSGSSSNIGSHYVSWYQQLPGTAPKLLIYDNSERTSGIPDRFSGSKSGTSATLGITGLQTGDEADYYCGTWDELTSNLVFGGGTRLTVL
Q: For B6, which Kd [1] is on record?
A: 0.29 nM

Q: And the koff [2]?
A: 4.2e-05 s⁻¹
